Data from US20220372155A1 (LYVGEN BIOPHARMA, published 2022).

How the values were obtained:
[1] = target: T1, Ly090 (human CD40 ECD protein with His tag) (human, UniProt P25942 21-193); assay: bridging ELISA, coated CD40 ECD-His, soluble PD-1 ECD-mFc
T1 construct: extracellular domain; also called human CD40 ECD protein (His tag); recombinant human CD40; not shown: His tag
Method: (§1) Briefly, human CD40 ECD protein (His tag) was diluted and coated onto an ELISA plate with a volume of […] by incubation at 4° C. overnight. […] After 1-hour incubation at room temperature, HRP-conjugated anti-Mouse IgG (H+L) antibody was added into the plate at 100 μL/well. The plate was incubated for 1 hour at room temperature followed by washing. TMB substrate solution was added at 100 μL/well and the color development was stopped by adding 100 uL/well Stop Solution (2N H2SO4). Absorbance at 450 nm and 620 nm was read by Tecan F200 Pro plate reader. GraphPad 7.0, “[Agonist] vs. response—Variable slope (four parameters)” was used to plot the binding data and calculate binding EC50 values.

[2] = target: T2, Human PD-1-ECD protein (mouse IgG2a Fc tag) (human, UniProt Q15116 25-170); assay: as above
T2 construct: extracellular domain; also called soluble human recombinant PD-1; not shown: mouse IgG2a Fc tag
T2 sequence (Q15116 25-170): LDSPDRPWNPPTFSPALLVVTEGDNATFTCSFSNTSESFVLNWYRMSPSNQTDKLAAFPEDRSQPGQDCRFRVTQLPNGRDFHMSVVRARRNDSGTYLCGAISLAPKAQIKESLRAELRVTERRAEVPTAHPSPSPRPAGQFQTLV
Method: as §1

[3] = target: T3, human PD-1 expressed on CHO cells (human, UniProt Q15116 25-288); assay: FACS, CHO cells
T3 construct: whole, on cells; also used for human PD-1 on Jurkat reporter cells; also called Jurkat/NFkB-Luci/PD-1 cells
T3 sequence (Q15116 25-288): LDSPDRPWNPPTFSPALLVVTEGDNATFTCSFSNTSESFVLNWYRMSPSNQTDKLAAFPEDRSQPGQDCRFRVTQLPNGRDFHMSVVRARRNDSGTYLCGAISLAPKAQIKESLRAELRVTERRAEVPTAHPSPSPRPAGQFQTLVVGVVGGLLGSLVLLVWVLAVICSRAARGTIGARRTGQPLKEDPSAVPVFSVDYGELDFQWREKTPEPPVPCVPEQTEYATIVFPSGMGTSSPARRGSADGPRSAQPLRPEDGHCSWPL

[4] = target: T4, human CD40 expressed on CHO cells (human, UniProt P25942 21-277); assay: FACS, CHO cells
T4 construct: whole, on cells; also used for the reporter cells over-expressing human CD40; also called cellular CD40; CHO-CD40 cells
T4 sequence (P25942 21-277): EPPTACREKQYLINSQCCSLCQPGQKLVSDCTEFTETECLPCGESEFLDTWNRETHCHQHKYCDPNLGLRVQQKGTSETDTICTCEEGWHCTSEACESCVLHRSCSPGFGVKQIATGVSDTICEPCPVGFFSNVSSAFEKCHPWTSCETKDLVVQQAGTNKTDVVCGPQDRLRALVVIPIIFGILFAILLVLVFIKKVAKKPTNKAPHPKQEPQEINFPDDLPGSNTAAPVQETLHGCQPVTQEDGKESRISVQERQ

Measured: binding result

T1 sequence (P25942 21-193): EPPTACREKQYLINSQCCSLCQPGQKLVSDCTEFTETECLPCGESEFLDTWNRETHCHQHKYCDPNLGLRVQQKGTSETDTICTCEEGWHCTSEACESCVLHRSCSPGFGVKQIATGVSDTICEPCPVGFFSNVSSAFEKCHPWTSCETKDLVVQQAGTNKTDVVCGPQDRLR

B1: Ly517 (bispecific antibody, human IgG1, kappa)
heavy: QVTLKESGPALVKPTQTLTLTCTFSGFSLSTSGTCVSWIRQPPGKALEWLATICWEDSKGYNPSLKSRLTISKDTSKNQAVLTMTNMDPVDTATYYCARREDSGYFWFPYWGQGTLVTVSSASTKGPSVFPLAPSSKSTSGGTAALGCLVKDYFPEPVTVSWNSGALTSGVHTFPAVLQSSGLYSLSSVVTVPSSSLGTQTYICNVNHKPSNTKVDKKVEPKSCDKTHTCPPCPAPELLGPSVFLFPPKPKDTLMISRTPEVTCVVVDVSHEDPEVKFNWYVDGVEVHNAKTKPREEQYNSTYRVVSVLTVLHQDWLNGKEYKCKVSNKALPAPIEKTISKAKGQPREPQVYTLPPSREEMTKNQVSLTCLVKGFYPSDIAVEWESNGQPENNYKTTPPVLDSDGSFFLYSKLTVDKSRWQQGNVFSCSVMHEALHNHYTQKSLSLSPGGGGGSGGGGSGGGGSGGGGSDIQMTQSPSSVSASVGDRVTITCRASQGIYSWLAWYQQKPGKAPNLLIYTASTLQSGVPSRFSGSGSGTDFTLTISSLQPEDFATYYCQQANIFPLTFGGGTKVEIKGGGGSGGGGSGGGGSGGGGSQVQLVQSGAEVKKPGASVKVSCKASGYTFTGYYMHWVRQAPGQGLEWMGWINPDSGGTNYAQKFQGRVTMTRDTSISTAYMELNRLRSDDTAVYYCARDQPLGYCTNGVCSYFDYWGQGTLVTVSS
light: NIQMTQSPSSLSASVGDRVTITCKAGQNVNNYLAWYQQKPGKAPKVLIFNANSLQTGVPSRFSGSGSGTDFTLTISSLQPEDFATYYCQQYNSWPTFGGGTKVEIKRTVAAPSVFIFPPSDEQLKSGTASVVCLLNNFYPREAKVQWKVDNALQSGNSQESVTEQDSKDSTYSLSSTLTLSKADYEKHKVYACEVTHQGLSSPVTKSFNRGEC
notes: Ly516 HC (IgG1 mutated Fc)-Ly253 scFv VL-VH + Ly516 LC
binds: all assays above

B2: Ly518 (bispecific antibody, human IgG1, kappa)
heavy: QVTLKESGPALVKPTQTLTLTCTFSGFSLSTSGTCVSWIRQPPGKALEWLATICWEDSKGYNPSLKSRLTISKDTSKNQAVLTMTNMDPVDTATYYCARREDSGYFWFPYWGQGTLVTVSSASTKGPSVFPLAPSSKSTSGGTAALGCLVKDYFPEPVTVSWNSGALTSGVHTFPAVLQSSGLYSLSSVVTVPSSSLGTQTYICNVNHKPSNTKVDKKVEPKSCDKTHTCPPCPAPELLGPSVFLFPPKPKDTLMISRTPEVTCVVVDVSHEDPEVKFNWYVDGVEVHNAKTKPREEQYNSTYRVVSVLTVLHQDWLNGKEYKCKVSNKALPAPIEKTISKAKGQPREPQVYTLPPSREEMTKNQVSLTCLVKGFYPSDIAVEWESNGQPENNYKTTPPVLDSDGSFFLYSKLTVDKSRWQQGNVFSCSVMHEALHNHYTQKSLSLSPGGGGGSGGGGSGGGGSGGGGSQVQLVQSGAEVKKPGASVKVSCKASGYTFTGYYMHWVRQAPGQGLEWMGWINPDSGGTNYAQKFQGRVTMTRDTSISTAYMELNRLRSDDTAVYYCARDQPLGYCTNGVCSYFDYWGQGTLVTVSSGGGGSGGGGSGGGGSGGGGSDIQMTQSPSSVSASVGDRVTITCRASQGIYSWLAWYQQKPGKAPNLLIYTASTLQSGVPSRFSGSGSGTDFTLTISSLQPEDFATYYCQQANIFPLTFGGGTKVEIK
light: NIQMTQSPSSLSASVGDRVTITCKAGQNVNNYLAWYQQKPGKAPKVLIFNANSLQTGVPSRFSGSGSGTDFTLTISSLQPEDFATYYCQQYNSWPTFGGGTKVEIKRTVAAPSVFIFPPSDEQLKSGTASVVCLLNNFYPREAKVQWKVDNALQSGNSQESVTEQDSKDSTYSLSSTLTLSKADYEKHKVYACEVTHQGLSSPVTKSFNRGEC
notes: Ly516 HC (IgG1 mutated Fc)-Ly253 scFv VH-VL + Ly516 LC
binds: all assays above

B3: Ly606 (bispecific antibody, human IgG1, kappa)
heavy: QVTLKESGPALVKPTQTLTLTCTFSGFSLSTSGTCVSWIRQPPGKALEWLATICWEDSKGYNPSLKSRLTISKDTSKNQAVLTMTNMDPVDTATYYCARREDSGYFWFPYWGQGTLVTVSSASTKGPSVFPLAPSSKSTSGGTAALGCLVKDYFPEPVTVSWNSGALTSGVHTFPAVLQSSGLYSLSSVVTVPSSSLGTQTYICNVNHKPSNTKVDKKVEPKSCDKTHTCPPCPAPELLGPSVFLFPPKPKDTLMISRTPEVTCVVVDVSHEDPEVKFNWYVDGVEVHNAKTKPREEQYNSTYRVVSVLTVLHQDWLNGKEYKCKVSNKALPAPIEKTISKAKGQPREPQVYTLPPSREEMTKNQVSLTCLVKGFYPSDIAVEWESNGQPENNYKTTPPVLDSDGSFFLYSKLTVDKSRWQQGNVFSCSVMHEALHNHYTQKSLSLSPGGGGGSGGGGSGGGGSGGGGSDIQMTQSPSSLSASVGDRVTITCKASQNIYIYLNWYQQKPGKAPKLLIYNTNNLQTGVPSRFSGSGSGTDFTLTISSLQPEDFATYYCLQHSSRRTFGGGTKVEIKGGGGSGGGGSGGGGSGGGGSQVQLVESGGGLVQPGGSLKLSCATSGFNFNDYFMNWVRQASGKGLEWVGQIRNKNYNYATYYTESLEGRVTISRDDSKNTAYLQMNSLKTEDTAVYYCTSYYYDGFADYFDYWGQGTTVTVSS
light: NIQMTQSPSSLSASVGDRVTITCKAGQNVNNYLAWYQQKPGKAPKVLIFNANSLQTGVPSRFSGSGSGTDFTLTISSLQPEDFATYYCQQYNSWPTFGGGTKVEIKRTVAAPSVFIFPPSDEQLKSGTASVVCLLNNFYPREAKVQWKVDNALQSGNSQESVTEQDSKDSTYSLSSTLTLSKADYEKHKVYACEVTHQGLSSPVTKSFNRGEC
notes: Ly516 HC (IgG1 mutated Fc)-TM740 scFv VL-VH + Ly516 LC
binds: all assays above

B4: Ly607 (bispecific antibody, human IgG1, kappa)
heavy: QVTLKESGPALVKPTQTLTLTCTFSGFSLSTSGTCVSWIRQPPGKALEWLATICWEDSKGYNPSLKSRLTISKDTSKNQAVLTMTNMDPVDTATYYCARREDSGYFWFPYWGQGTLVTVSSASTKGPSVFPLAPSSKSTSGGTAALGCLVKDYFPEPVTVSWNSGALTSGVHTFPAVLQSSGLYSLSSVVTVPSSSLGTQTYICNVNHKPSNTKVDKKVEPKSCDKTHTCPPCPAPELLGPSVFLFPPKPKDTLMISRTPEVTCVVVDVSHEDPEVKFNWYVDGVEVHNAKTKPREEQYNSTYRVVSVLTVLHQDWLNGKEYKCKVSNKALPAPIEKTISKAKGQPREPQVYTLPPSREEMTKNQVSLTCLVKGFYPSDIAVEWESNGQPENNYKTTPPVLDSDGSFFLYSKLTVDKSRWQQGNVFSCSVMHEALHNHYTQKSLSLSPGGGGGSGGGGSGGGGSGGGGSQVQLVESGGGLVQPGGSLKLSCATSGFNFNDYFMNWVRQASGKGLEWVGQIRNKNYNYATYYTESLEGRVTISRDDSKNTAYLQMNSLKTEDTAVYYCTSYYYDGFADYFDYWGQGTTVTVSSGGGGSGGGGSGGGGSGGGGSDIQMTQSPSSLSASVGDRVTITCKASQNIYIYLNWYQQKPGKAPKLLIYNTNNLQTGVPSRFSGSGSGTDFTLTISSLQPEDFATYYCLQHSSRRTFGGGTKVEIK
light: NIQMTQSPSSLSASVGDRVTITCKAGQNVNNYLAWYQQKPGKAPKVLIFNANSLQTGVPSRFSGSGSGTDFTLTISSLQPEDFATYYCQQYNSWPTFGGGTKVEIKRTVAAPSVFIFPPSDEQLKSGTASVVCLLNNFYPREAKVQWKVDNALQSGNSQESVTEQDSKDSTYSLSSTLTLSKADYEKHKVYACEVTHQGLSSPVTKSFNRGEC
notes: Ly516 HC (IgG1 mutated Fc)-TM740 scFv VH-VL + Ly516 LC
binds: all assays above

B5: Ly608 (bispecific antibody, human IgG1, kappa)
heavy: QVTLKESGPALVKPTQTLTLTCTFSGFSLSTSGTCVSWIRQPPGKALEWLATICWEDSKGYNPSLKSRLTISKDTSKNQAVLTMTNMDPVDTATYYCARREDSGYFWFPYWGQGTLVTVSSASTKGPSVFPLAPSSKSTSGGTAALGCLVKDYFPEPVTVSWNSGALTSGVHTFPAVLQSSGLYSLSSVVTVPSSSLGTQTYICNVNHKPSNTKVDKKVEPKSCDKTHTCPPCPAPELLGPSVFLFPPKPKDTLMISRTPEVTCVVVDVSHEDPEVKFNWYVDGVEVHNAKTKPREEQYNSTYRVVSVLTVLHQDWLNGKEYKCKVSNKALPAPIEKTISKAKGQPREPQVYTLPPSREEMTKNQVSLTCLVKGFYPSDIAVEWESNGQPENNYKTTPPVLDSDGSFFLYSKLTVDKSRWQQGNVFSCSVMHEALHNHYTQKSLSLSPGGGGGSGGGGSGGGGSGGGGSDIQMTQSPSSLSASVGDRVTITCLASEDISNDLAWYQQKPGKAPKLLIYFVDRLLDGVPSRFSGSGSGTDFTLTISSLQPEDFATYYCQQSYKYPPTFGQGTKLEIKGGGGSGGGGSGGGGSGGGGSEVQLVESGGGLVQPGGSLRLSCAASGFTFTNYGLHWVRQAPGKGLEWVSSISPSGGVTYYRDSVKGRFTISRDNSKNTLYLQMNSLRAEDTAVYYCAKPFLGWGGANWIAHWGQGTLVTVSS
light: NIQMTQSPSSLSASVGDRVTITCKAGQNVNNYLAWYQQKPGKAPKVLIFNANSLQTGVPSRFSGSGSGTDFTLTISSLQPEDFATYYCQQYNSWPTFGGGTKVEIKRTVAAPSVFIFPPSDEQLKSGTASVVCLLNNFYPREAKVQWKVDNALQSGNSQESVTEQDSKDSTYSLSSTLTLSKADYEKHKVYACEVTHQGLSSPVTKSFNRGEC
notes: Ly516 HC (IgG1 mutated Fc)-TM559 scFv VL-VH + Ly516 LC
binds: all assays above

B6: Ly519 (bispecific antibody, human IgG1, kappa)
heavy: QVTLKESGPALVKPTQTLTLTCTFSGFSLSTSGTCVSWIRQPPGKALEWLATICWEDSKGYNPSLKSRLTISKDTSKNQAVLTMTNMDPVDTATYYCARREDSGYFWFPYWGQGTLVTVSSASTKGPSVFPLAPSSKSTSGGTAALGCLVKDYFPEPVTVSWNSGALTSGVHTFPAVLQSSGLYSLSSVVTVPSSSLGTQTYICNVNHKPSNTKVDKKVEPKSCDKTHTCPPCPAPELLGPSVFLFPPKPKDTLMISRTPEVTCVVVDVSHEDPEVKFNWYVDGVEVHNAKTKPREEQYNSTYRVVSVLTVLHQDWLNGKEYKCKVSNKALPAPIEKTISKAKGQPREPQVYTLPPSREEMTKNQVSLTCLVKGFYPSDIAVEWESNGQPENNYKTTPPVLDSDGSFFLYSKLTVDKSRWQQGNVFSCSVMHEALHNHYTQKSLSLSPGK
light: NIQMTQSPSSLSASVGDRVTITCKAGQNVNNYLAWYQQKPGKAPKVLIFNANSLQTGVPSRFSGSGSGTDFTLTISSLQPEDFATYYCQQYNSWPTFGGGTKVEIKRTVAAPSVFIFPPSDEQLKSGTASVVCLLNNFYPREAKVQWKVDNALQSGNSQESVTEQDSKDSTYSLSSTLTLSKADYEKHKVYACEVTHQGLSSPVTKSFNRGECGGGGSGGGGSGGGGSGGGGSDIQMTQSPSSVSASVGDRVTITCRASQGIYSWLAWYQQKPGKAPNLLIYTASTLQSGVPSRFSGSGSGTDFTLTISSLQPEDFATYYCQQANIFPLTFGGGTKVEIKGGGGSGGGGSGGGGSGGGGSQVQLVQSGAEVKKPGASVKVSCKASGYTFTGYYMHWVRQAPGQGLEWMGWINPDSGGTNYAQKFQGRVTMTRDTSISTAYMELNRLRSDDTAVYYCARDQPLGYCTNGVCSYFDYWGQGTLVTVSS
notes: Ly516 HC (IgG1 mutated Fc) + Ly516 LC-Ly253 scFv VL-VH
binds: all assays above

B7: Ly520 (bispecific antibody, human IgG1, kappa)
heavy: QVTLKESGPALVKPTQTLTLTCTFSGFSLSTSGTCVSWIRQPPGKALEWLATICWEDSKGYNPSLKSRLTISKDTSKNQAVLTMTNMDPVDTATYYCARREDSGYFWFPYWGQGTLVTVSSASTKGPSVFPLAPSSKSTSGGTAALGCLVKDYFPEPVTVSWNSGALTSGVHTFPAVLQSSGLYSLSSVVTVPSSSLGTQTYICNVNHKPSNTKVDKKVEPKSCDKTHTCPPCPAPELLGPSVFLFPPKPKDTLMISRTPEVTCVVVDVSHEDPEVKFNWYVDGVEVHNAKTKPREEQYNSTYRVVSVLTVLHQDWLNGKEYKCKVSNKALPAPIEKTISKAKGQPREPQVYTLPPSREEMTKNQVSLTCLVKGFYPSDIAVEWESNGQPENNYKTTPPVLDSDGSFFLYSKLTVDKSRWQQGNVFSCSVMHEALHNHYTQKSLSLSPGK
light: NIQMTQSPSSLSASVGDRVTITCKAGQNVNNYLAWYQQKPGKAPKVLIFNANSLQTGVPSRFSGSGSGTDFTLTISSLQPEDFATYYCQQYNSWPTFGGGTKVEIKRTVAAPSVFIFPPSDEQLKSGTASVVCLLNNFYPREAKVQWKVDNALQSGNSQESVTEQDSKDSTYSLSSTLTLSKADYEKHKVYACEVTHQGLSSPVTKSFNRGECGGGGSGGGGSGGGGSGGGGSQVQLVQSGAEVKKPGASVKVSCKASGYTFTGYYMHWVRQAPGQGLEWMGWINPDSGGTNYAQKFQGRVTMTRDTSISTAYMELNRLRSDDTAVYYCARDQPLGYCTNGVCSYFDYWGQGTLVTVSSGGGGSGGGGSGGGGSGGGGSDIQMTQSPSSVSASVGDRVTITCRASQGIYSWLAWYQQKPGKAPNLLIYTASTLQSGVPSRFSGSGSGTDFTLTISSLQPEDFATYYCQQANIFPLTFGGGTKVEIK
notes: Ly516 HC (IgG1 mutated Fc) + Ly516 LC-Ly253 scFv VH-VL
binds: all assays above
